{"source": "patent US7285395B2", "about": "“Stearoyl-CoA desaturase 4 gene” (Wisconsin Alumni Research Foundation, priority 2004, dated 2007)", "molecules": {"B1": {"name": "leptin: recombinant mouse leptin (Amgen, Thousand Oaks, Calif.) (protein, UniProt P41160 22-167, looked up)", "Leptin": "VPIQKVQDDTKTLIKTIVTRINDISHTQSVSAKQRVTGLDFIPGLHPILSLSKMDQTLAVYQQVLTSLPSQNVLQIANDLENLRDLLHLLAFSKSCSLPQTSGLQKPESLDGVLEASLYSTEVVALSRLQGSLQDILQQLDVSPEC"}}, "key": {"ob/ob mice [1]": {"system": "ob/ob mice", "test": "monounsaturated fatty acid content of hearts of leptin-treated ob/ob mice by GLC", "type": "in vivo, mouse", "conditions": "leptin treatment, GLC of total fatty acids", "procedure": "A, SCD activity: Microsomes were prepared from hearts of PBS-treated, ob/ob, ob/ob pair-fed (PF), and leptin-treated (ob/ob-Leptin) mice, and SCD enzyme activity was determined by measuring the incorporation of radioactivity in oleoyl-CoA using [1-^14C]stearoyl-CoA as a substrate. The reaction products were separated by TLC, and the radioactivity was quantitated. Each value represents the mean±S.E. (n=4). B, Levels of monounsaturated fatty acids in the hearts of ob/ob mice: Total fatty acids were extracted from heart of ob/ob mice treated with either leptin or PBS and wild type controls quantitated by GLC as described in the example below. *, p<0.05 versus wt-PBS; #,p<0.05 versus ob/ob-PBS. C, Total RNA was prepared from hearts of PBS or leptin-treated ob/ob mice and used to measure SCD1, SCD2, and SCD4 mRNA levels by quantitative RT-PCR analysis. The fold change relative to that of wild type was calculated after correction for the levels of cyclophilin used as a standard. […]\nSubcutaneous Leptin Treatment—ob/ob mice were individually caged and allowed to acclimate for a number of days prior to the start of the experiment. […] Body mass and food intake were measured daily. […]\nob/ob mice have a mutation in the leptin gene and are a model of obesity, insulin resistance, and diabetes. […] To determine which SCD isoform(s) accounted for these effects, we measured RNA levels of mSCD1, mSCD2, and mSCD4. […]"}, "ob/ob mice [2]": {"system": "ob/ob mice", "test": "food intake and body weight of ob/ob mice under subcutaneous leptin treatment", "type": "in vivo, mouse", "conditions": "leptin 200 ng/h subcutaneous miniosmotic pump", "procedure": "Subcutaneous Leptin Treatment—ob/ob mice were individually caged and allowed to acclimate for a number of days prior to the start of the experiment. The mice were treated with 200 ng/h of recombinant mouse leptin (Amgen, Thousand Oaks, Calif.) […] phosphate-buffered saline (PBS) for 12 days using subcutaneously placed Alzet miniosmotic pumps model 1002 (AlZa Co., Palo Alto, Calif.) as described in Soukas, A. et al. (2000) Genes Dev. 14, 963-980, which is herein incorporated by reference in its entirety. As an additional control, a group of mice referred to as pair-fed was treated with PBS and given the same amount of food to eat as leptin-treated mice voluntarily consumed. All of the data presented were generated from this or a similar time course where mice were either treated with PBS or leptin for 12 days. Body mass and food intake were measured daily.\nob/ob mice have a mutation in the leptin gene and are a model of obesity, insulin resistance, and diabetes. […] We analyzed the mRNA level of the SCD4 isoform in the hearts of leptin-deficient ob/ob mice and ob/ob mice treated with either PBS or leptin. As an additional control, RNA isolated from saline-treated ob/ob mice that were pair-fed to the leptin treated group for 12 days was also analyzed. […] To determine which SCD isoform(s) accounted for these effects, we measured RNA levels of mSCD1, mSCD2, and mSCD4. […]"}}, "data": [{"molecule": "B1", "values": [{"measurement": "18:1 content of heart", "setting": "ob/ob mice [1]", "value": "reduced to levels comparable with those in wild type mice"}, {"measurement": "food intake", "setting": "ob/ob mice [2]; after 12 days of treatment", "value": "1.2 ± 0.1", "unit": "g"}, {"measurement": "loss of initial weight", "setting": "ob/ob mice [2]; end of 12-day treatment", "value": "34±0.8", "unit": "%"}]}]}
